These results are taken from the supplement of paper PMC12338614.

± gives the uncertainty stated by the source.

The chains are these.
B1: library; numbered along this chain (parent)
chain: MEVVDPQQLGMFTEGELMSVGMDTFIHRIDSTEVIYQPRRKRAKLIGKYLMGDLLGEGSYGKVKEVLDSETLCRRAVKILKKKKLRRIPNGEANVKKEIQLLRRLRHKNVIQLVDVLYNEEKQKMYMVMEYCVCGMQEMLDSVPEKRFPVCQAHGYFCQLIDGLEYLHSQGIVHKDIKPGNLLLTTGGTLKISDLGVAEALHPFAADDTCRTSQGSPAFQPPEIANGLDTFSGFKVDIWSAGVTLYNITTGLYPFEGDNIYKLFENIGKGSYAIPGDCGPPLSDLLKGMLEYEPAKRFSIRQIRQHSWFRKKHPPAEAPVPIPPSPDTKDRWRSMTVVPYLEDLHGADEDEDLFDIEDDIIYTQDFTVPGQVPEEEASHNGQRRGLPKAVCMNGTEAAQLSTKSRAEGRAPNPARKACSASSKIRRLSACKQQ

This data set covers variants of B1. The data set is described as follows: STK11 functional score (HeLa growth suppression), rescaled enrichment; synonymous median = 1, nonsense median = 0 (normalised score). The settings on record: with HeLa; variant type: missense. The essentials: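 In HeLa, Bxb1 integrated POPCode codon-randomised libraries of codon-optimised STK11 at an AAVS1 landing pad; three regions were each transfected three times. Integrants, marked as BFP-negative and mCherry-positive, were FACS-sorted 4–5 days after electroporation and expanded for about two weeks before tiled gDNA amplicons were sequenced on NextSeq (~2 million reads per tile). Each functional score is a post/pre-selection log ratio corrected to wild type, rescaled to the synonymous and nonsense medians, and merged across codons and replicate transfections, with error estimated by bootstrapping.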
Take MEVVDPQQLGMFTEGELMSVGMDTFIHRIDSTEVIYQPRRKRAKLIGKYLMGDLLGEGSYGKVKEVLDSETLCRRAVKILKKKKLRRIPNGEANVKKEIQLLRRLRHKNVIQLVDVLYNEEKQKMYMVMEYCVCGMQEMLDSVPEKRFPVCQAHGYFCQLIDGLEYLHSQGIVHKDIKPGNLLLTTGGTLKISDLGVAEALHPFAADDTCRTSQGSPAFQPPEIANGLDTFSGFKVDIWSAGVTLYNITTGLYPFEGDNIYKLFENIGKGSYAIPGDCGPPLSDLLKGMLEYEPAKRFSIRQIRQHSWFRKKHPPAEAPVPIPPSPDTKDRWRSMTVVPYLEDLHGADEDEDLFDIEDDIIYTQDFTVPGQVPEEEASHNGQRRGLPKAVCMNGTEAAQLMTKSRAEGRAPNPARKACSASSKIRRLSACKQQ [S401M]: the STK11 functional score is 1.44 ± 0.2. On to MEVVDPQQLGMFTEGELMSVGMDTFIHRIDSTEVIYQPRRKRAKLIGKYLMGDLLGEGSYGKVKEVLDSETLCRRAVKILKKKKLRRIPNGEANVKKEIQLLRRLRHKNVIQLVDVLYNEEKQKMYMVMEYCVCGMQEMLDSVPEKRFPVCQAHGYFCQLIDGLEYLHSQGIVHKDIKPGNLLLTTGGTLKISDLGVAEALHPFAADDTCRTSQGSPAFQPPEIANGLDTFSGFKVDIWSAGVTLYNITTGLYPFEGDNIYKLFENIGKGSYAIPGDCGPPLSDLLKGMLEYEPAKRFSIRQIRQHSWFRKKHPPAEAPVPIPPSPDTKDRWRSMTVVPYLEDLHGADEDEDLFDIEDDIIYTQDFTVPGQVPEEEASHNGQRRGLPKAVCMNGTEAAQLHTKSRAEGRAPNPARKACSASSKIRRLSACKQQ [S401H], for which the STK11 functional score was 1.49 ± 0.16.

For the variant MEVVDPQQLGMFTEGELMSVGMDTFIHRIDSTEVIYQPRRKRAKLIGKYLMGDLLGEGSYGKVKEVLDSETLCRRAVKILKKKKLRRIPNGEANVKKEIQLLRRLRHKNVIQLVDVLYNEEKQKMYMVMEYCVCGMQEMLDSVPEKRFPVCQAHGYFCQLIDGLEYLHSQGIVHKDIKPGNLLLTTGGTLKISDLGVAEALHPFAADDTCRTSQGSPAFQPPEIANGLDTFSGFKVDIWSAGVTLYNITTGLYPFEGDNIYKLFENIGKGSYAIPGDCGPPLSDLLKGMLEYEPAKRFSIRQIRQHSWFRKKHPPAEAPVPIPPSPDTKDRWRSMTVVPYLEDLHGADEDEDLFDIEDDIIYTQDFTVPGQVPEEEASHNGQRRGLPKAVCMNGTEAAQLNTKSRAEGRAPNPARKACSASSKIRRLSACKQQ [S401N], the STK11 functional score stood at 1.4 ± 0.14. In the case of MEVVDPQQLGMFTEGELMSVGMDTFIHRIDSTEVIYQPRRKRAKLIGKYLMGDLLGEGSYGKVKEVLDSETLCRRAVKILKKKKLRRIPNGEANVKKEIQLLRRLRHKNVIQLVDVLYNEEKQKMYMVMEYCVCGMQEMLDSVPEKRFPVCQAHGYFCQLIDGLEYLHSQGIVHKDIKPGNLLLTTGGTLKISDLGVAEALHPFAADDTCRTSQGSPAFQPPEIANGLDTFSGFKVDIWSAGVTLYNITTGLYPFEGDNIYKLFENIGKGSYAIPGDCGPPLSDLLKGMLEYEPAKRFSIRQIRQHSWFRKKHPPAEAPVPIPPSPDTKDRWRSMTVVPYLEDLHGADEDEDLFDIEDDIIYTQDFTVPGQVPEEEASHNGQRRGLPKAVCMNGTEAAQLRTKSRAEGRAPNPARKACSASSKIRRLSACKQQ [S401R], the STK11 functional score stood at 1.11 ± 0.38. With MEVVDPQQLGMFTEGELMSVGMDTFIHRIDSTEVIYQPRRKRAKLIGKYLMGDLLGEGSYGKVKEVLDSETLCRRAVKILKKKKLRRIPNGEANVKKEIQLLRRLRHKNVIQLVDVLYNEEKQKMYMVMEYCVCGMQEMLDSVPEKRFPVCQAHGYFCQLIDGLEYLHSQGIVHKDIKPGNLLLTTGGTLKISDLGVAEALHPFAADDTCRTSQGSPAFQPPEIANGLDTFSGFKVDIWSAGVTLYNITTGLYPFEGDNIYKLFENIGKGSYAIPGDCGPPLSDLLKGMLEYEPAKRFSIRQIRQHSWFRKKHPPAEAPVPIPPSPDTKDRWRSMTVVPYLEDLHGADEDEDLFDIEDDIIYTQDFTVPGQVPEEEASHNGQRRGLPKAVCMNGTEAAQLGTKSRAEGRAPNPARKACSASSKIRRLSACKQQ [S401G], the STK11 functional score is 0.991 ± 0.7.

Turning to MEVVDPQQLGMFTEGELMSVGMDTFIHRIDSTEVIYQPRRKRAKLIGKYLMGDLLGEGSYGKVKEVLDSETLCRRAVKILKKKKLRRIPNGEANVKKEIQLLRRLRHKNVIQLVDVLYNEEKQKMYMVMEYCVCGMQEMLDSVPEKRFPVCQAHGYFCQLIDGLEYLHSQGIVHKDIKPGNLLLTTGGTLKISDLGVAEALHPFAADDTCRTSQGSPAFQPPEIANGLDTFSGFKVDIWSAGVTLYNITTGLYPFEGDNIYKLFENIGKGSYAIPGDCGPPLSDLLKGMLEYEPAKRFSIRQIRQHSWFRKKHPPAEAPVPIPPSPDTKDRWRSMTVVPYLEDLHGADEDEDLFDIEDDIIYTQDFTVPGQVPEEEASHNGQRRGLPKAVCMNGTEAAQLITKSRAEGRAPNPARKACSASSKIRRLSACKQQ [S401I], the STK11 functional score was 1.49 ± 0.15.

With MEVVDPQQLGMFTEGELMSVGMDTFIHRIDSTEVIYQPRRKRAKLIGKYLMGDLLGEGSYGKVKEVLDSETLCRRAVKILKKKKLRRIPNGEANVKKEIQLLRRLRHKNVIQLVDVLYNEEKQKMYMVMEYCVCGMQEMLDSVPEKRFPVCQAHGYFCQLIDGLEYLHSQGIVHKDIKPGNLLLTTGGTLKISDLGVAEALHPFAADDTCRTSQGSPAFQPPEIANGLDTFSGFKVDIWSAGVTLYNITTGLYPFEGDNIYKLFENIGKGSYAIPGDCGPPLSDLLKGMLEYEPAKRFSIRQIRQHSWFRKKHPPAEAPVPIPPSPDTKDRWRSMTVVPYLEDLHGADEDEDLFDIEDDIIYTQDFTVPGQVPEEEASHNGQRRGLPKAVCMNGTEAAQLKTKSRAEGRAPNPARKACSASSKIRRLSACKQQ [S401K], the STK11 functional score was found to be 1.44 ± 0.28. Under MEVVDPQQLGMFTEGELMSVGMDTFIHRIDSTEVIYQPRRKRAKLIGKYLMGDLLGEGSYGKVKEVLDSETLCRRAVKILKKKKLRRIPNGEANVKKEIQLLRRLRHKNVIQLVDVLYNEEKQKMYMVMEYCVCGMQEMLDSVPEKRFPVCQAHGYFCQLIDGLEYLHSQGIVHKDIKPGNLLLTTGGTLKISDLGVAEALHPFAADDTCRTSQGSPAFQPPEIANGLDTFSGFKVDIWSAGVTLYNITTGLYPFEGDNIYKLFENIGKGSYAIPGDCGPPLSDLLKGMLEYEPAKRFSIRQIRQHSWFRKKHPPAEAPVPIPPSPDTKDRWRSMTVVPYLEDLHGADEDEDLFDIEDDIIYTQDFTVPGQVPEEEASHNGQRRGLPKAVCMNGTEAAQLFTKSRAEGRAPNPARKACSASSKIRRLSACKQQ [S401F] stands 1.49 ± 0.24; under MEVVDPQQLGMFTEGELMSVGMDTFIHRIDSTEVIYQPRRKRAKLIGKYLMGDLLGEGSYGKVKEVLDSETLCRRAVKILKKKKLRRIPNGEANVKKEIQLLRRLRHKNVIQLVDVLYNEEKQKMYMVMEYCVCGMQEMLDSVPEKRFPVCQAHGYFCQLIDGLEYLHSQGIVHKDIKPGNLLLTTGGTLKISDLGVAEALHPFAADDTCRTSQGSPAFQPPEIANGLDTFSGFKVDIWSAGVTLYNITTGLYPFEGDNIYKLFENIGKGSYAIPGDCGPPLSDLLKGMLEYEPAKRFSIRQIRQHSWFRKKHPPAEAPVPIPPSPDTKDRWRSMTVVPYLEDLHGADEDEDLFDIEDDIIYTQDFTVPGQVPEEEASHNGQRRGLPKAVCMNGTEAAQLVTKSRAEGRAPNPARKACSASSKIRRLSACKQQ [S401V], 1.41 ± 0.24; under MEVVDPQQLGMFTEGELMSVGMDTFIHRIDSTEVIYQPRRKRAKLIGKYLMGDLLGEGSYGKVKEVLDSETLCRRAVKILKKKKLRRIPNGEANVKKEIQLLRRLRHKNVIQLVDVLYNEEKQKMYMVMEYCVCGMQEMLDSVPEKRFPVCQAHGYFCQLIDGLEYLHSQGIVHKDIKPGNLLLTTGGTLKISDLGVAEALHPFAADDTCRTSQGSPAFQPPEIANGLDTFSGFKVDIWSAGVTLYNITTGLYPFEGDNIYKLFENIGKGSYAIPGDCGPPLSDLLKGMLEYEPAKRFSIRQIRQHSWFRKKHPPAEAPVPIPPSPDTKDRWRSMTVVPYLEDLHGADEDEDLFDIEDDIIYTQDFTVPGQVPEEEASHNGQRRGLPKAVCMNGTEAAQLTTKSRAEGRAPNPARKACSASSKIRRLSACKQQ [S401T], 0.884 ± 0.64. Under MEVVDPQQLGMFTEGELMSVGMDTFIHRIDSTEVIYQPRRKRAKLIGKYLMGDLLGEGSYGKVKEVLDSETLCRRAVKILKKKKLRRIPNGEANVKKEIQLLRRLRHKNVIQLVDVLYNEEKQKMYMVMEYCVCGMQEMLDSVPEKRFPVCQAHGYFCQLIDGLEYLHSQGIVHKDIKPGNLLLTTGGTLKISDLGVAEALHPFAADDTCRTSQGSPAFQPPEIANGLDTFSGFKVDIWSAGVTLYNITTGLYPFEGDNIYKLFENIGKGSYAIPGDCGPPLSDLLKGMLEYEPAKRFSIRQIRQHSWFRKKHPPAEAPVPIPPSPDTKDRWRSMTVVPYLEDLHGADEDEDLFDIEDDIIYTQDFTVPGQVPEEEASHNGQRRGLPKAVCMNGTEAAQLWTKSRAEGRAPNPARKACSASSKIRRLSACKQQ [S401W] stands 0.786 ± 0.71; under MEVVDPQQLGMFTEGELMSVGMDTFIHRIDSTEVIYQPRRKRAKLIGKYLMGDLLGEGSYGKVKEVLDSETLCRRAVKILKKKKLRRIPNGEANVKKEIQLLRRLRHKNVIQLVDVLYNEEKQKMYMVMEYCVCGMQEMLDSVPEKRFPVCQAHGYFCQLIDGLEYLHSQGIVHKDIKPGNLLLTTGGTLKISDLGVAEALHPFAADDTCRTSQGSPAFQPPEIANGLDTFSGFKVDIWSAGVTLYNITTGLYPFEGDNIYKLFENIGKGSYAIPGDCGPPLSDLLKGMLEYEPAKRFSIRQIRQHSWFRKKHPPAEAPVPIPPSPDTKDRWRSMTVVPYLEDLHGADEDEDLFDIEDDIIYTQDFTVPGQVPEEEASHNGQRRGLPKAVCMNGTEAAQLLTKSRAEGRAPNPARKACSASSKIRRLSACKQQ [S401L], 1.51 ± 0.28. For MEVVDPQQLGMFTEGELMSVGMDTFIHRIDSTEVIYQPRRKRAKLIGKYLMGDLLGEGSYGKVKEVLDSETLCRRAVKILKKKKLRRIPNGEANVKKEIQLLRRLRHKNVIQLVDVLYNEEKQKMYMVMEYCVCGMQEMLDSVPEKRFPVCQAHGYFCQLIDGLEYLHSQGIVHKDIKPGNLLLTTGGTLKISDLGVAEALHPFAADDTCRTSQGSPAFQPPEIANGLDTFSGFKVDIWSAGVTLYNITTGLYPFEGDNIYKLFENIGKGSYAIPGDCGPPLSDLLKGMLEYEPAKRFSIRQIRQHSWFRKKHPPAEAPVPIPPSPDTKDRWRSMTVVPYLEDLHGADEDEDLFDIEDDIIYTQDFTVPGQVPEEEASHNGQRRGLPKAVCMNGTEAAQLPTKSRAEGRAPNPARKACSASSKIRRLSACKQQ [S401P], the STK11 functional score worked out at 1.07 ± 0.67. As for MEVVDPQQLGMFTEGELMSVGMDTFIHRIDSTEVIYQPRRKRAKLIGKYLMGDLLGEGSYGKVKEVLDSETLCRRAVKILKKKKLRRIPNGEANVKKEIQLLRRLRHKNVIQLVDVLYNEEKQKMYMVMEYCVCGMQEMLDSVPEKRFPVCQAHGYFCQLIDGLEYLHSQGIVHKDIKPGNLLLTTGGTLKISDLGVAEALHPFAADDTCRTSQGSPAFQPPEIANGLDTFSGFKVDIWSAGVTLYNITTGLYPFEGDNIYKLFENIGKGSYAIPGDCGPPLSDLLKGMLEYEPAKRFSIRQIRQHSWFRKKHPPAEAPVPIPPSPDTKDRWRSMTVVPYLEDLHGADEDEDLFDIEDDIIYTQDFTVPGQVPEEEASHNGQRRGLPKAVCMNGTEAAQLSAKSRAEGRAPNPARKACSASSKIRRLSACKQQ [T402A], the STK11 functional score turned out to be 1.42 ± 0.28.
